According to patent US10480012B2, “CYP-P22 biocatalytic nanoparticles with cytochrome P450 activity for prodrug activation” (UNIVERSIDAD NACIONAL AUTÓNOMA DE MÉXICO, priority 2015, dated 2019):

How the values were obtained:
[1] = Kinetic parameters of encapsulated and free CYP with 2,6-DMP and H2O2; assay type: biochemical
Procedure: To calculate the kinetic parameters using 2,6-DMP as a substrate, two curves were constructed with two different concentrations of hydrogen peroxide, 5 mM and 60 mM. Reactions were carried out in 0.1 mL (50 mM Tris-HCl pH 8) with the following phenol concentrations: 10, 25, 50, 125, 250 and 500 μM. The reaction was started by adding 5 mM or 60 mM of H2O2. The amount of encapsulated enzyme used was 42.9 picomoles (assays with 5 mM H2O2) and 21.45 picomoles (assays with 60 mM H2O2); the amount of protein was determined by a concentration assay, specific for CYP450, for binding to CO. The catalytic activity was spectrophotometrically monitored at 468 nm (ε468=14800 M^−1 cm^−1 using an Agilent 8453 UV-vis spectrophotometer. Catalytic constants were obtained through the GraphPad Prism 6 program.
H) Catalytic capacity of P22 capsids with CYP inside is evaluated. Reactions were carried out in 0.1 mL (50 mM Tris-HCl pH 8) with the following phenol concentrations: 10, 25, 50, 125, 250 and 500 μM. The reaction was started by adding 5 mM or 60 mM of H2O2. The amount of encapsulated enzyme used was 42.9 picomoles, the amount of protein was determined by a CO binding assay specific for CYP450. Catalytic activity was spectrophotometrically monitored at 468 nm (ε468=14800 M^−1 cm^−1). […] The encapsulated enzyme follows a Michaelis-Menten kinetics as does free CYP.

trypsin = experiment: Stability to protease degradation (trypsin), residual activity; assay type: physicochemical; conditions: 10 U trypsin per mg protein, room temperature
Procedure: For proteolysis assays, the encapsulated and free enzyme was treated with 10 U of trypsin per mg protein, incubating for 1 and 20 h at room temperature. At the end of each time, an aliquot was taken out of the sample and the residual activity was measured in 100 mM Tris-HCl buffer pH 8 using 500 μM 2,6-DMP as substrate and initiating the reaction with 5 mM H2O2.

[2] = Temperature stability, activity retention at 40 and 50° C.; assay type: physicochemical
Procedure: Stability of encapsulated CYP and the free enzyme was determined by measuring the percentage of activity retention at different times when the protein was incubated at 40 and 50° C. in a water bath. Incubation times for each of the temperatures were 0, 5, 10, 15 and 30 min. At the end of each time, an aliquot was removed from the sample, centrifuged for 1 min at 16,000×g and left to rest for 10 min to temper the sample before measuring activity. Catalytic activity was measured in a final volume of 0.1 mL in 100 mM Tris-HCl buffer pH 8 using 500 μM 2,6-DMP as substrate and initiating the reaction with 5 mM H2O2.

pH activity profile = assay type: biochemical; conditions: 500 μM 2,6-DMP, 5 mM H2O2
Procedure: To determine the activity profile at different pH values for the encapsulated and free enzyme, catalytic activity was measured at the following pHs: 5 (100 mM sodium acetate), 6 (100 mM potassium phosphate}, 7, 8 and 9 (100 mM Tris-HCl), 10 (100 mM borates). Catalytic activity was measured in a final volume of 0.1 mL using as substrate 500 μM 2,6-DMP and initiating the reaction with 5 mM H2O2.

[3] = test system: human MCF7 breast cancer cells; experiment: CYP activity in tumor cells treated with nanoparticles (BFC fluorescence assay); assay type: cell-based; conditions: 100 μM BFC, fluorescence images
Procedure: I) The presence of biocatalytic nanoparticles (loaded nanoparticles) with CYP activity is evaluated in transformation of 7-benzyloxy-4-trifluorometyl-coumarin (BFC) monitored by fluorescence according to the method of Donato et al.. The fluorescence assay for determining CYP activity is performed with a direct incubation of cultured tumor cells in a 12-well plate in the presence of BFC 100 μM. […] After 60 min incubation at 37° C. the incubation medium is removed and the conjugated products of CYP transformation will be hydrolyzed with a mixture of 3-giucoronidase/arylsulfatase for 2 hours at 37° C. Finally, samples are diluted with the corresponding solution and product fluorescence (7-hydroxy-4-trifluoromethylcoumarin, HFC) is quantified in a spectrofluorimeter with 410 nm excitation and 510 nm emission.
J) Affinity evaluation of functionalized loaded nanoparticles in tumor cells in vitro is carried out in human MCF7 breast cancer cells that are maintained in DMEM medium (Dulbecco's Modified Eagle's Medium) supplemented with 10% fetal bovine serum. […] The presence of biocatalytic nanoparticles (CYP-P22) with CYP activity is evaluated in the transformation of 7-benzyloxy-4-trifluoromethyl-coumarin (BFC) monitored by fluorescence according to the method of Donato et al.. […]

B1: CYP-P22: cytochrome P450 (CYPBM3 “21B3” fused to scaffold protein) encapsulated in a bacteriophage P22 nanocapsid (protein)
chain: MAIKEMPQPKTFGELKNLPLLNTDKPVQALMKIADELGEIFKFEAPGRVTRYLSSQRLVKEACDESRFDKNLSQALKFVRDFAGDGLATSWTHEKNWKKARNILLPSLSQQAMKGYHAMMVDIAVQLVQKWERLNSDEKIEVPEDVTRLTLDTIGLCGFNYRFNSFYRDQPHPFITSMVRALDEAMNKLQRANPDDPAYDENKRQFQEDIKVMDLVDKIIADRKASGEQSDDLLTHMLHGKDPETGEPLDDENIRYQIITFLIAGHETTSGLLTFALYFLVKNPHVLQKAAEEAARVLVDPVPSYKQVKQLKYVGMVLNEALRLWPTAPAFSLYAKEDTVLGGEYPLEKGDELMVLIPQLHRDKTIWGDDVEEFRPERFENPSAIPQHAFKPFGNGQRACIGQQFALHEATLVLGMMLKHFDFEDHTNYELDIEETLTLKPEGFVIKAKSKKIPLGGIPSPSTGSLVPRGSCRSNAVAEQGRKTQEFTQQSAQYVEAARKHYDAAEKLNIPDYQEKEDAFMQLVPPAVGADIMRLFPEKSAALMYHLGANPEKARQLLAMDGQSALIELTRLSERLTLKPRGKQISSAPHADQPITGDVSAANKDAIRKQMDAAASKGDVETYRKLKAKLKGIR
catalytic activity using 2,6-DMP and H2O2 as substrates [1]: catalytically active
kcat app ([1]; substrate 2,6-DMP, 5 mM H2O2, 50 mM Tris-HCl pH 8): 127.2 (±2.3) min^−1
activity retained after incubation with trypsin (trypsin; 1 hour): 96%
activity retained after incubation with trypsin (trypsin; 20 hours): 38%
stability compared with free enzyme ([2]; 40° C.): practically the same
inactivation compared with free CYP ([2]; 50° C.): even faster than that found for free CYP
pH of optimum activity (pH activity profile): pH 8 and 9
cytochrome P450 activity in treated tumor cells versus endogenous activity in untreated cells [3]: much greater
